Here are results for 1 molecule from patent publication US20250296984A1, “THERAPEUTIC AND DIAGNOSTIC AGENTS AND USES THEREOF” (priority 2022, published 2025).

Assay [1] addresses T1, US28 protein on CHO-US28-A1 cells (Human cytomegalovirus, UniProt P69332, D170N/D19A).
T1 construct: expressed in transfected cells; host or cells: CHO-K1 (vector pCDH-EF1a-MCS)
Kind of assay: Flow cytometry (FACS) surface binding to CHO-US28-A1 cells. Also on record: species or system human cytomegalovirus (HCMV). The note with it: recombinant antibody (rAb), FIG. 7. The source says: FIG. 2. Flowcytometry analysis showing surface binding of the US28-13-5G6-1D3 antibody clone on CHO-US28-A1 cells. From the left, blank control, 2nd antibody control and clone US28-13-5G6-1D3 Ab binding on the surface of the CHO-US28-A1 cells.
FIG. 3. The positive surface binding of the clone US28-13-5G6-1D3 on CHO-US28-A1 cells was further validated by gradient dilution in FACS analysis. From the left, the clone US28-13-5G6-1D3 Ab surface binding to the CHO-US28-A1 cells in dilutions 1:20, 1:50, 1:200 (w/v).
FIG. 4. The positive surface binding of the clone US28-13-5G6-1D3 on CHO-US28-A1 cells was compared with the US28 negative CHO control cells. The clone US28-13-5G6-1D3 Ab bound 15-fold more to the surface of the US28 positive CHO-US28-A1 cells than to the US28 negative CHO cells in 1:50 (w/v).
FIG. 7. […] The surface binding of the 13-5G6-1D3 rAb to CHO cells was only measured in 1:10 dilution (w/v) and was 0.77% after removing the binding to blank and anti-mouse IgG-Alexa 488 secondary Ab controls. […]
In a further embodiment, it is preferred that a binding molecule of the present invention binds preferentially to US28-expressing cells (such as CHO cells engineered to express US28) compared to its binding of US28-negative cells (such as wildtype CHO cells), for example, at a 1:50 (w/v) dilution, for example as determined by flow cytometry assay. […]
For orientation: In flow cytometry, cells or beads pass a laser one at a time.

Assay [2] has as its system HCMV infected human lung tissue. Kind of assay: Immunohistochemistry (IHC) on HCMV infected human lung tissue and controls. The note with it: HCMV positive control slide, FIG. 12. As for the experimental part: Cytomegalovirus (CMV) control slides containing CMV positive lung tissue and CMV negative myometrium (product number #3240A) were obtained from Newcomer Supply Inc., Middleton, WI 53562-2579, USA. Tissue micro-arrays (TMAs) were obtained from US Biomax Inc., Derwood, MD 20855, USA, and included tumor tissues #BR1008b, #BS17016c, #BCN721b and normal tissues #FDA662a and heart tissues #HEN241a.
The paraffin sections were sequentially immersed into a. 100% xylene three times (5 min each); b. 100% ethanol twice (2 min each); c. 95% ethanol twice (2 min each). The slides were rinsed twice in water for 5 min to remove ethanol. […], the slides were immersed in 3% H2O2 for 5 minutes and washed thereafter twice (2×) with distilled water. The slides were then immersed in the working citrate buffer (pH 6.0) and covered with a lid. The buffer was heated in the microwave until it had boiled, and then kept in the steamer for 15 min.
The sections were cooled at room temperature for 30 min and washed with PBS. 5% BSA blocking solution was then added to the HIER treated samples and they were incubated at 37° C. for 30 min. […] Digitized pictures were taken by Olympus VS120 scanner and analyzed by using OlyVia 3.2 software (Olympus Corporation, 20101 Tokyo, Japan) by senior Pathologist.

B1: 13-5G6-1D3 rAb: recombinant antibody product of US28-13-5G6-1D3 produced in HEK293-F cells (antibody)
heavy: EVKLVESGGGLVQPGGSLRLACATSGFTFTDYYMSWVRQPPGKALEWLGFIRSKANGYTTEYSASVKGRFTISRDNSQSILYLQMNTLRSEDSATYYCARDERRTAWLAYWGQGTLVTVSAAKTTPPSVYPLAPGSAAQTNSMVTLGCLVKGYFPEPVTVTWNSGSLSSGVHTFPAVLQSDLYTLSSSVTVPSSTWPSETVTCNVAHPASSTKVDKKIVPRDCGCKPCICTVPEVSSVFIFPPKPKDVLTITLTPKVTCVVVDISKDDPEVQFSWFVDDVEVHTAQTQPREEQFNSTFRSVSELPIMHQDWLNGKEFKCRVNSAAFPAPIEKTISKTKGRPKAPQVYTIPPPKEQMAKDKVSLTCMITDFFPEDITVEWQWNGQPAENYKNTQPIMDTDGSYFIYSKLNVQKSNWEAGNTFTCSVLHEGLHNHHTEKSLSHSPGK
light: DVLMTQTPLSLPVSLGDQASISCRSSQSIVHSNGNTYLDWYLQKPGQSPKLLIYKVSNRFSGVPDRFSGSGSGTDFTLKISRVEAEDLGVYYCFQGSHVPTWTFGGGTKLEIKRADAAPTVSIFPPSSEQLTSGGASVVCFLNNFYPKDINVKWKIDGSERQNGVLNSWTDQDSKDSTYSMSSTLTLTKDEYERHNSYTCEATHKTSTSPIVKSFNRNEC
For the molecule B1, in assay [1], the “fold more surface binding on CHO-US28-A1 cells than to normal CHO cells” value was > 21 fold. Moreover, in assay [2], the “IHC staining of HCMV infected cells in lung tissue” value is “strong cytoplasmic staining”.
